The assay has as its target GPA1 protein (yeast) (UniProt P08539). Kind of assay: cell-based or functional assay.
UniProt P08539, sequence (P08539 2-472 limits assumed): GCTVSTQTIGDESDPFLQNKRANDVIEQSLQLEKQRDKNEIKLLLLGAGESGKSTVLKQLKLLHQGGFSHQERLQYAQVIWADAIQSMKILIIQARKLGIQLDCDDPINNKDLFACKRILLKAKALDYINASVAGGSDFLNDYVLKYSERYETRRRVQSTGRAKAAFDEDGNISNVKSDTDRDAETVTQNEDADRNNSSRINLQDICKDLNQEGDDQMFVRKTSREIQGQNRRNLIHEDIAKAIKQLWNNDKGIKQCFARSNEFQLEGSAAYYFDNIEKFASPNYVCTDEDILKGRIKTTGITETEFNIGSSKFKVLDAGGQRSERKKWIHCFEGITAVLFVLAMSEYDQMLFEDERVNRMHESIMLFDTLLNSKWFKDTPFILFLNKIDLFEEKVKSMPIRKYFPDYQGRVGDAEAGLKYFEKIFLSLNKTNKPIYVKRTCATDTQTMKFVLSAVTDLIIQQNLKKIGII

Substance “murine RATH1.1 gene product (from UniProt P97428 1-201)” registered a diameter of growth inhibition zone; strain MY169 (sst2-, RATH1.1 under ADH2 promoter); 1 µg alpha factor of 0.8 cm; a diameter of growth inhibition zone; strain MY169 (sst2-, RATH1.1 under ADH2 promoter); 10 µg alpha factor of 1.8 cm; a diameter of growth inhibition zone; strain MY173 (SST2+, RATH1.1 under ADH2 promoter); 10 µg alpha factor of 1.6 cm.

These data come from patent publication US20020115140A1.
